From paper PMC11878792 come the findings set out here.

This series concerns the target wt human lysyl-tRNA synthetase (h-LysRS, cytosolic) (human) (UniProt Q15046). Nature of the series: EMSA. The following applies: 1 mM Mg2+, Kd values printed only in Fig. 4C, EMSA: 20 mM HEPES pH 7.4, 60 mM NaCl, 10 mM KCl, 1 mM MgCl2, 400 uM DTT, 8% glycerol, room temperature 30 min, 37.5 nM tRNA, 0-5 uM LysRS, Hill fit, SYBR Gold …. Background: In EMSA bound probe runs differently from free probe, usually more slowly.

wt human lysyl-tRNA synthetase (h-LysRS, cytosolic) (human), sequence (Q15046 whole entry): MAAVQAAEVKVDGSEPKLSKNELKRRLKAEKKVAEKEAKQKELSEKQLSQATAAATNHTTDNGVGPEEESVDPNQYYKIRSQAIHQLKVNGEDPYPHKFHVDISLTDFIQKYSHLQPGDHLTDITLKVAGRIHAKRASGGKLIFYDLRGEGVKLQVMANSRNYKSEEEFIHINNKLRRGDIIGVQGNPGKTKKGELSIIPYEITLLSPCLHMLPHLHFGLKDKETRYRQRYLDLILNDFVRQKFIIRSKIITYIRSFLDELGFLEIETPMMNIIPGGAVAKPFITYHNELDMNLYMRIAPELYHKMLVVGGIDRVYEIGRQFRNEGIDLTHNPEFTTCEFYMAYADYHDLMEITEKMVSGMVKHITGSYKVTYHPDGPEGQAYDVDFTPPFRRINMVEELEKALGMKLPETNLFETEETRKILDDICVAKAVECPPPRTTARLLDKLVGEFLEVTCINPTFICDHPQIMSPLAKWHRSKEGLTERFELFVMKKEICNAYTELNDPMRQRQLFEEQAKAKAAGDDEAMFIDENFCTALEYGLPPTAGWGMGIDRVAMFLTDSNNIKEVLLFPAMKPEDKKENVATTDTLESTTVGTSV

Turning to IVT unmodified tRNALys3, the binding signal (scale: fold lower affinity than modified tRNALys3) was 2.5.

On to cellular fully modified tRNALys3, for which the binding signal (fold higher affinity than IVT tRNALys3) (native modifications, named: m2G10, D20, S34 (mcm5s2U), R37 (ms2t6A), D47, psi55, 9 types, 14 modified nucleotides modeled) worked out at 2.5.
